# In patent publication US20260234223A1 (LEYDEN LABORATORIES B V, published 2026):
# B1: COV30-14 (antibody, V domains shown)
# VH: QVQLVQSGAEVKKPGASVKVSCQTSGYTFTSYYMHWVRQAPGQGLEWMGLITPSGDDTYYAQRFQGRVTMTRDTSTSPTYMELSSLTSEDTAVYYCAKMSRAGGFDVWGQGTLVTVSS
# VL: EVVLTQSPGTLSLSPGERATLSCRASQSITGRYLAWYQQKPGQAPRLLMYGESSRVTGIPDRFSGGGSGTDFTLTISRLEPEDFAVYYCQHFASSPPTYTFGQGTKLEIR
# notes: also called the antibody according to the invention; the antibody according to invention
# Target: SARS-CoV-2 Omicron BA.4 Spike (on pseudovirions) (SARS-CoV-2 Omicron BA.4)
# Test: cell-based or functional assay
binder,measurement,value
B1,Pseudovirion neutralization IC50 (geometric mean),7.6 µg/mL
